This note sets out measurements from patent US20250043022A1 (JIANGSU HENGRUI PHARMACEUTICALS, published 2025).

First the molecules themselves.
B1: 15-F2 (bispecific antibody)
heavy 1: not shown
light 1: DIQMTQSPSSLSASVGDRVTITCKASQGVDTAVAWYQQKPGKSPKLLIYWASTRHTGVPDRFSGSGSGTDFTLTISSLQPEDVATYYCQQYSRYPLTFGQGTKLEIKRTVAAPSVFIFPPSDEQLKSGTASVVCLLNNFYPREAKVQWKVDNALQSGNSQESVTEQDSKDSTYSLSSTLTLSKADYEKHKVYACEVTHQGLSSPVTKSFNRGEC
heavy 2: not shown
light 2: not shown
notes: PSMA x CD3, Format 2
B2: HJ-3 (bispecific antibody)
chain 1: not shown
chain 2: DIQMTQSPSSVSASVGDRVTITCRASQDIANYLSWYQQKPGKSPKLLIYGTSNLEVGVPSRFSGSRSGTDFTLTISSLQPEDFATYYCLQDKEFPRTFGGGTKVEIKGGGGSSGAPRFLTRPLAFVVSVGKDATLSSQIVGNPTPQVSWEKDKQPVTAGARFRLAQDGDLYRLKILDLQLSDSGQYVSRARNAIGEAFACLGLQVDAEA
chain 3: EVQLVQSGAEVKKPGSSVKVSCKASGYTFSNYLIEWVRQAPGQGLEWIGVIDPGVGDTNYNENFKGRATLTADKSTSTAYIELSSLRSEDTAVYYCAREDNTGTAFDYWGQGTTVTVSSASTKGPSVFPLAPSSKSTSGGTAALGCLVKDYFPEPVTVSWNSGALTSGVHTFPAVLQSSGLYSLSSVVTVPSSSLGTQTYICNVNHKPSNTKVDKKVEPKSCDKTHTCPPCPAPEAAGGPSVFLFPPKPKDTLMISRTPEVTCVVVDVSHEDPEVKFNWYVDGVEVHNAKTKPREEQYNSTYRVVSVLTVLHQDWLNGKEYKCKVSNKALPAPIEKTISKAKGQPREPQVCTLPPSREEMTKNQVSLSCAVKGFYPSDIAVEWESNGQPENNYKTTPPVLDSDGSFFLVSKLTVDKSRWQQGNVFSCSVMHEALHNHYTQKSLSLSPGKDYKDDDDK
chain 4: SIVMTQTPLSLSVTPGQPASISCKASQSVSSDVTWYLQKPGQSPQLLIYYVSEHYTGVPDRFSGSGYGTDFTLKISRVEAEDVGVYYCQQHHRFPLTFGQGTKLEIKRTVAAPSVFIFPPSDEQLKSGTASVVCLLNNFYPREAKVQWKVDNALQSGNSQESVTEQDSKDSTYSLSSTLTLSKADYEKHKVYACEVTHQGLSSPVTKSFNRGEC
B3: HJ-11 (bispecific antibody)
chain 1: not shown
chain 2: DIQMTQSPSSVSASVGDRVTITCRASQDIANYLSWYQQKPGKSPKLLIYGTSNLEVGVPSRFSGSRSGTDFTLTISSLQPEDFATYYCLQDKEFPRTFGGGTKVEIKRTVASSGCPRFLTRPKASVVSVGKDATLSCQIVGNPFPQVSWEKDKQPVTAGVRFRLAQDGDLYRLKILDLQLSDSGQYVCRARNAHGEAFACLGLQVDAEA
chain 3: EVQLVQSGAEVKKPGSSVKVSCKASGYTFSNYLIEWVRQAPGQGLEWIGVIDPGVGDTNYNENFKGRATLTADKSTSTAYIELSSLRSEDTAVYYCAREDNTGTAFDYWGQGTTVTVSSASTKGPSVFPLAPSSKSTSGGTAALGCLVKDYFPEPVTVSWNSGALTSGVHTFPAVLQSSGLYSLSSVVTVPSSSLGTQTYICNVNHKPSNTKVDKKVEPKSCDKTHTCPPCPAPEAAGGPSVFLFPPKPKDTLMISRTPEVTCVVVDVSHEDPEVKFNWYVDGVEVHNAKTKPREEQYNSTYRVVSVLTVLHQDWLNGKEYKCKVSNKALPAPIEKTISKAKGQPREPQVCTLPPSREEMTKNQVSLSCAVKGFYPSDIAVEWESNGQPENNYKTTPPVLDSDGSFFLVSKLTVDKSRWQQGNVFSCSVMHEALHNHYTQKSLSLSPGK
chain 4: B2 chain 4
B4: HJ-9 (bispecific antibody)
chain 1: not shown
chain 2: B3 chain 2 with C115A, R121C, C137S, C188S
chain 3: B3 chain 3
chain 4: B2 chain 4
B5: HJ-10 (bispecific antibody)
chain 1: not shown
chain 2: B3 chain 2 with C115A
chain 3: B3 chain 3
chain 4: B2 chain 4
B6: HJ-5 (bispecific antibody)
chain 1: not shown
chain 2: B2 chain 2 with L123K, F125S, T144F, A160V, I194H
chain 3: B3 chain 3
chain 4: B2 chain 4
B7: HJ-8 (bispecific antibody)
chain 1: not shown
chain 2: B3 chain 2 with C115A, C137S, C188S
chain 3: B3 chain 3
chain 4: B2 chain 4
B8: HJ-7 (bispecific antibody)
chain 1: not shown
chain 2: B3 chain 2 with R108G, T109G, V110G, A111G, C115A
chain 3: B3 chain 3
chain 4: B2 chain 4
B9: HJ-6 (bispecific antibody)
chain 1: not shown
chain 2: B2 chain 2 with R121C, L123K, F125S, T144F, A160V, I194H
chain 3: B3 chain 3
chain 4: B2 chain 4
B10: murine antibody 19 (antibody, V domains shown)
VH: EVKLVESEGGLVQPGSSMKLSCTASGFTFSDYYMAWVRQVPERGLEWVANINYDGSSTYYLDSLKSRFIISRDNAKNILYLQMSSLKSEDTATYYCARGGDYWDAMDYWGQGTSVTVSS
VL: DIQMTQTTSSLSASLGDRVTISCRASQDISKYLNWYQQKPDGTVKLLIYYTSSLHSGVPSRFSGSGSGTDYSLTISNLEQEDIATYFCQQGNRLPRTFGGGTKLEIK
notes: murine hybridoma antibody
B11: murine antibody 71 (antibody, V domains shown)
VH: QVQLVETGGGLVRPGNSLKLSCVTSGFTFSNYRMHWLRQPPGKRLEWIAVITVKSDNYGSSYAESVKGRFAISRDDSKSSVYLEMNRLREEDTATYFCSRELGQVLVFWGQGTLVTVSA
VL: DVVVTQTPLSLPVSLGDQASISCRSSQSLVHSYGNTYLHWYLQKPGQSPKLLIYKVSNRFSGVPDRFSGSGSGTDFTLKISRVEAEDLGVYFCSQTTHVPWTFGGGTKLEIK
notes: murine hybridoma antibody
B12: murine antibody 43 (antibody, V domains shown)
VH: EVKFEESGGGLVQPGGSMKLSCVASGFTFSNYWMNWLRQSPEKGLEWVAQVRLKSDNYATHYAESVKGRFTISRDDSKSSAYLQMNNLRAEDTGIYYCSENYYGPAGPFDFWGQGTTLTVSS
VL: DIVMTQSQKFMSTTVGDRVSITCKASQNVHTSVAWYQQKPGQSPKLLIYSASNRYSGVPDRFTGSGSGTDFTLTINNMQSEDLADYFCQQYSSYPLTFGVGTKLELK
notes: murine hybridoma antibody
B13: murine antibody 46 (antibody, V domains shown)
VH: EVQLVESGGDLVKPGGSLKLSCAASGFTFSNYGMSWVRQTPDKRIKWVATIGSGGGYTYYSDSVKGRFTISRDNAKNTLYLQMSSLKSEDTAIYYCVRHPQIGYWGQGTLVTVSA
VL: B12 VL with S20T, N28S, H30G, S32A, N53S, S56T, N76T, Q89H, V100G, L106I
notes: murine hybridoma antibody
B14: murine antibody 15 (antibody, V domains shown)
VH: EFQLQQSGPELVKPGASVKISCKASGYSFTDHNMNWVKQSNGKSLEWIGLINPNYGTADYNQKFKGKATLTVDQSSTTAFMQFTSLTSEDSAVYYCARGSSLFAYWGQGTLVTVSA
VL: DIVMTQSHKFMSTSVGDRVNITCKASQGVDTAVAWYQQKPGQSPKLLIYWASTRHTGVPDRFTGSGSGTDFTLTISNVQSEDLADYFCQQYSRYPLTFGAGTKLELK
notes: murine hybridoma antibody
B15: murine antibody 2 (antibody, V domains shown)
VH: EVKLVESEGGLVQPGSSMKLSCTASGFTFSDYYMAWVRQVPEKGLEWVANINFDGSSTYYLDSLKSRFIISRDNAKNILYLQMSSLKSEDTATYYCARDLDGYYGYFDVWGTGTTVTVSS
VL: QIVLTQSPAIMSASPGEKVTISCSASSSVSHMYWYQQKPGSSPKPWIYRTSNLASGVPARFSGSGSGTSYSLTISSMEAEDAATYYCQQYHSYPLMFGAGTKLELK
notes: murine hybridoma antibody
B16: murine antibody 27 (antibody, V domains shown)
VH: B15 VH with F53Y
VL: B15 VL with H31Y, M96T
notes: murine hybridoma antibody
B17: murine antibody 50 (antibody, V domains shown)
VH: QVQLQQSGAELARPGASVKLSCKASGFTFTNYGISWVKQRTGQGLEWIGEIYPRSGNTYYNTNFKGEATLTADKSSSTAFMELRSLTSEDSAVYFCARNPFTTVVEGFAFWGQGTLVTVSA
VL: DVFMTQSPLSLPVSLGDQASISCRSSQSILHSNGNTYLEWYLQKPGQSPKLLIYRVSNRFSGVPDRFSGSGSGTDFTLKISRVEAEDLGVYYCFQGLHVPPTFGAGTKLELK
notes: murine hybridoma antibody

Substitutions are numbered along the chain they refer to.

T1 sequence (Q04609 whole entry): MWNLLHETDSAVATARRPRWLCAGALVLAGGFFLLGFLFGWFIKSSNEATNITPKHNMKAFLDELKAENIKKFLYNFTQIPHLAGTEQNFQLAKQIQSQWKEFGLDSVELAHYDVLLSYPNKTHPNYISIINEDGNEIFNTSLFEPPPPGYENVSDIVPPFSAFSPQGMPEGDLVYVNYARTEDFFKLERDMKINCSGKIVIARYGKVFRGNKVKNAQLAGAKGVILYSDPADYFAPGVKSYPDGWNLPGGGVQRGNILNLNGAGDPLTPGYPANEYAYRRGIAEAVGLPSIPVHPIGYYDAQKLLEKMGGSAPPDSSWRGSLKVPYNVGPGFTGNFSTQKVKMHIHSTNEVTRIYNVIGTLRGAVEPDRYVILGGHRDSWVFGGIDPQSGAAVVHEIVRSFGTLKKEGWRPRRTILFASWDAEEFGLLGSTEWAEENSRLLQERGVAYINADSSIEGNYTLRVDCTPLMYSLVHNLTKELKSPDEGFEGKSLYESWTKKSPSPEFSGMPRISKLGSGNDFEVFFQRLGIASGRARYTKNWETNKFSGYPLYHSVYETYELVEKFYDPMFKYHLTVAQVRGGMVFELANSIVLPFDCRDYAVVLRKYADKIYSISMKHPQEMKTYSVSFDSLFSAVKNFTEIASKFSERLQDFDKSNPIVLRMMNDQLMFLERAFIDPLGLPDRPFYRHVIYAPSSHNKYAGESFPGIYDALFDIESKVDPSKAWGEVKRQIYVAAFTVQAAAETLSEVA

The first assay has as its target T1, human PSMA on cells (Cho-hPSMA, CHO-K1 cells overexpressing full-length human PSMA) (human, UniProt Q04609 1-750).
T1 construct: whole, on cells; also called cell surface PSMA; PSMA-expressing Lncap cells
The assay can be described thus: flow cytometry, Cho-hPSMA; antibody at 20 nM. On the procedure:
(§1) Experiment 1: Cho-hPSMA was cultured in F12 medium with 10% FBS. The medium to which cells were inoculated was incubated in a 37° C., 5% CO₂ incubator for 2 days, and cells were added to a cell plate at 1×10⁵ cells/well and washed by centrifugation. Antibodies were serially diluted, and the antibody solutions were added to the cell plate at 100 μL/well. The plate was incubated at 4° C. for 1 h and then washed. An AF488-Goat Anti-human IgG Fc fluorescent secondary antibody dilution (1:400) was added to the cell plate at 100 μL/well, and the plate was incubated at 4° C. for 1 h and then washed. PBS was added to the cell plate at 100 μL/well before plate reading.
(§2) Experiment 3: The binding activity of bispecific antibodies was measured using the method of experiment 1.
On to B1, for which the fluorescence intensity was determined as 30700.

A further assay deals with T1, human PSMA on cells (Cho-hPSMA, CHO-K1 …). The assay can be described thus: flow cytometry, Cho-hPSMA; antibody at 0.8 nM. The protocol: as §1, §2
(In general: A flow cytometer gives signals particle by particle.)
Turning to B1, the fluorescence intensity was 15000.

The target of a further assay is hTSLP (human, UniProt Q969D9 29-159). The assay can be described thus: ELISA. For orientation: ELISA stands for enzyme-linked immunosorbent assay.
In the case of B2, the EC50 (usually the concentration at which the effect is half-maximal) is 3.23 nM.
On the same count and under the same terms, the value for B3 was 3 nM.
The same measure, in the same setting: for B4 the value was 3.18 nM; for B5, 3.17 nM.
The same measure, in the same setting: the value for B6 was 2.64 nM; that for B7 was 3.33 nM; that for B8 was 2.18 nM.
B9: the response was half-maximal at 2.88 nM (EC50).

Another assay deals with hIL5 (human, UniProt P05113 20-134). Description: ELISA.
In the case of B2, a half-maximal effect (EC50) was put at 17.4 nM. This lies in the double-digit nanomolar range.
Same read-out and setting: for B3 the value was 9.46 nM; for B4, 10.9 nM; for B5, 20.8 nM.
As to B6, the EC50 was 16 nM.
Still for that read-out and setting: for B7 the value was 18.7 nM.
Still for that read-out and setting: for B8 the value was 17.7 nM; for B9, 37 nM.

The next assay deals with T1, human PSMA on cells (Cho-hPSMA, CHO-K1 …). The assay can be described thus: flow cytometry, Cho-hPSMA; antibody at 100 nM. The protocol: as §1, §2
On to B1, for which the fluorescence intensity was 26900.

The next assay has the same target. Description: hybridoma screening on cells.
B10: the binding result is on record as “binds”.
The same measure, in the same setting: the value for B11 was “binds”; that for B12 was “binds”.
The same measure, in the same setting: the value for B13 was “binds”.
Same read-out and setting: for B14 the value was “binds”; for B15, “binds”.
B16: the binding result was “binds”.
Take B17: the binding result was “binds”.

For the next assay the target is unchanged. The assay can be described thus: flow cytometry, Cho-hPSMA; antibody at 4 nM. On the procedure:
as §1, §2
B1 registered a fluorescence intensity of 27800.
